What all share (assay): AlphaScreen or HTRF; saturation binding on HEK293 cells transfected with SNAP-ghrelin receptor (WT or mutants) labelled with SNAP-Lumi4-Tb; increasing concentrations of ghrelin-A2 in the presence or absence of 10 uM unlabeled ghrelin, 1 h at R.T.; HTRF ratio 665 nm/620 nm; one Kd for each of three experiments
The target in assay [1] is N-terminal-SNAP-tagged ghrelin receptor F312A (human) (UniProt Q92847).
The target in assay [2] is N-terminal-SNAP-tagged ghrelin receptor Q302A (human) (UniProt Q92847).
The target of assay [3] is N-terminal-SNAP-tagged ghrelin receptor, wild type (human) (UniProt Q92847).

By Kd is commonly meant the free concentration of one partner at which half of the binding sites on the other are occupied at equilibrium, for simple one-to-one binding.

“ghrelin-A2 (full-length ghrelin labeled with the dye A2 on an additional cysteine at the C-terminal end) (peptide)”: the Kd was 78 nM in assay [1], above 500 nM in assay [2] and 11 nM in assay [3].
